Data as given in patent publication US20220290101A1.

Target: L1 (DV1-GV4) soluble heterodimeric γδ TCR antigen, leucine zipper (LZ) format (human)
Assay: DELFIA affinity ranking with 100 nM biotinylated L1

Chain of L1 (DV1-GV4) soluble heterodimeric γδ TCR antigen, leucine zipper (LZ) format (human) (main, as listed by the source): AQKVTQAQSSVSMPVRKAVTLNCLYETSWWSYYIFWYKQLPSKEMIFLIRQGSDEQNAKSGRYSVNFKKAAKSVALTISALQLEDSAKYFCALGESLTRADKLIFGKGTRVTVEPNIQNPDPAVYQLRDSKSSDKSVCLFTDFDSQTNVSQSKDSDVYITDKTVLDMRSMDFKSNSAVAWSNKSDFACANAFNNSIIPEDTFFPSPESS

Row | 100 nM L1 (DELFIA signal) (fluorescence units) | Binder
1 | 163000 | 1245_P01_E07 (scFv) (scFv) scFv: QVQLVESGGGLVKPGGSLRLSCAASGFTFSDYYMSWIRQAPGKGLEWVSYISSSGSTIYYADSVKGRFTISRDNAKNSLYLQMNSLRAEDTAVYYCARVDYADAFDIWGQGTLVTVSSGGGGSGGGGSGGGASDIQMTQSPSSLSASVGDRVTIACRAGQSIGTYLNWYQQKPGKAPKLLIYVASSLQSGVPSRFSGSGSGTEFTLTISSLQPEDFATYYCQQSYSTLLTFGRGTKVEIK
2 | 17100 | 1251_P02_G10 (scFv) (scFv) scFv: EVQLVESGGGLVQPGGSLRLSCAASGFTFSDYYMSWIRQAPGKGLEWVSYISSSGSTIYYADSVKGRFTISRDNAKNSLYLQMNSLRAEDTAVYYCARHSWNDAFDIWGRGTLVTVSSGGGGSGGGGSGGGASDIQMTQSPSSLSASVGDRVTITCRASQSISSHLNWYQQKPGKAPKLLIYAASSLQSGVPSRFSASGSGTDFTLTISSLQPEDFATYYCQQSYSTLLTFGGGTKVEIK
3 | 10400 | 1245_P02_F07 (scFv) (scFv) scFv: QVQLQQSGPGLVKPSQTLSLTCVISGDSVSSNSAAWNWIRQSPSRGLEWLGRTYYRSKWYNDYAVSVKSRITINPDTSKNQFSLQLNSVTPEDTAVYYCARDYYYSMDVWGQGTMVTVSSGGGGSGGGGSGGGASDIQMTQSPSTLSASVGDRVTITCRASQSISSWLAWYQQKPGKAPKLLIYDASSLESGVPLRFSGSGSGTEFTLTISSLQPDDFATYYCQQSHSHPPTFGPGTKVDIK
4 | 18400 | 1245_P01_G09 (scFv) (scFv) scFv: QVQLQQSGPGLVKPSQTLSLTCAISGDSVSSNSAAWNWIRQSPSRGLEWLGRTYYGSKWYNEYALSVKSRIIINPDTSKNQFSLQLNSVTPEDTAVYYCARDYYYSMDVWGQGTLVTVSSGGGGSGGGGSGGGASDIVMTQSPSTLSASIGDRVTITCRAGQSISTWLAWYQQKPGKAPKLLIYDASSLESGVPLRFSGSGSGTEFTLAISSLQPDDFATYYCQQSYSTPVTFGQGTKVEIK
5 | 65300 | 1251_P02_C05 (scFv) (scFv) scFv: EVQLLESGGGLVQPGGSLRLSCAASGFTFSSYAMSWVRQAPGKGLEWVSAISGGGGTTYSSDSVKGRFTISRDNSKNTLYLQMNSLRAEDTAVYYCARDSGVAFDIWGQGTLVTVSSGGGGSGGGGSGGGASDIQMTQSPSFLSASVGDRVTITCRASQNIRTWLAWYQQKPGRAPKLLIYDASSLESGVPSRFSGSGSGTDFTLTISSLQPEDFATYYCQQFKRYPPTFGLGTKVEIK
6 | 137000 | 1141_P01_E01 (scFv) (scFv) scFv: QVQLVQSGAEVKKPGESLKISCKGSGYSFTSYWIGWVRQMPGKGLEWMGIIYPGDSDTRYSPSFQGQVTISADKSISTAYLQWSSLKASDTAMYYCARHQVDTRTADYWGQGTLVTVSSGGGGSGGGGSGGGASQSALTQPASVSGSPGQSVTISCTGTRSDVGGYNYVSWYQHHPGKAPKLMIYEVSNRPSGVSNRFSGSKSGNTASLTISGLQAEDEADYYCSSYTSTSTLVFGGGTKLTVL
7 | 5900 | 1245_P02_G04 (scFv) (scFv) scFv: QVQLQQSGPGLVKPSQTLSLTCAISGDSVSSKSAAWNWIRQSPSRGLEWLGRTYYRSKWSTDYAASVKSRITINPDTSKNQLSLQLNSVTPEDTAVYYCARTWSGYVDVWGQGTLVTVSSGGGGSGGGGSGGGASDIQMTQSPPALSASVGDRVTITCRASQDINDWLAWYQHKPGKAPKLLIYDASSLESGVPSRFSGSGSGTEFTLTISSLQPDDFATYYCQQSYSTPQVTFGQGTRLEIK
8 | 1980 | 1252_P01_C08 (scFv) (scFv) scFv: EVQLLESGGGLVQPGRSLRLSCAASGFTVSSNYMSWVRQAPGKGLEWVSVIYSGGSTYYADSVKGRFTISRDNSKNTLYLQMNSLRAEDTAVYYCASPIELGAFDIWGQGTLVTVSSGGGGSGGGGSGGGASSYELTQPPSVSVAPGKTARITCGGNNIGSQSVHWYQQKPGQAPMLVIYYDSDRPSGIPERFSGSNSGNTATLTISRVEAGDEADYYCQVWDSSSDHVVFGGGTKLTVL
9 | 23800 | 1139_P01_E04 (scFv) (scFv) scFv: QVQLQQSGPGLVKPSQTLSLTCAISGDSVSSNSAAWNWIRQSPSRGLEWLGRTYYRSKWYNDYAVSVRSRITINPDTSKNQFSLQLNSVTPEDTAVYYCARSWNDAFDIWGQGTTVTVSSGGGGSGGGGSGGGASDIVMTQSPSTLSASIGDRVTITCRAGQSISTWLAWYQQKPGKAPKLLIYDASSLESGVPLRFSGSGSGTDFTLTISSLQPEDFATYYCQQSYSTPLTFGGGTKVEIK
